Laboratory results: the domain aggregation screens of Martell et al. (2025)

Assay: soluble fraction after stress (log2 fold change); higher = more stays soluble; pooled small domains, quantitative proteomics
Settings: stress: pH 4
Summary of the method: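 Aggregation propensity here comes from the fold change in the soluble amount of each small protein domain after acid stress, measured in pooled custom libraries by high-throughput quantitative proteomics. The acid stress was pH 4. On the log2 scale, higher values mean more of the domain stayed soluble.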

| Sequence | soluble fraction (log2) |
| --- | --- |
| HMRLANGIGTVYKLSGNRRNPYIVRKTTGWEIDEESGKAKQKYITIGYAPTRAKGLEMLMDYNKNP | 0.22 |
| HMVKNYYEILEVDKKASPEVIEKAYKTLAKKYHPDLQEAENNGQYEEKMKEINEAYSVLSDEFKRRTYDEQ | 0.103 |
| HMDLDIQNYNLDEILELFKVSYDFDETELKKAHKMYLMTHPDKSNLNPNIFLFFVQAYDILRKLYEFR | -1.66 |
| HMIIVMKRNATETQIDHVVRWVESIGYRAHRSNGTEQTVVKAVGGERGGEELKYLAALSGVEKVVPIR | 0.141 |
| HMATAADLLQSATGVPRSDALLLLAKLLGVAKERLIAHPETVVSEKTQATFSDWIERVRGGFPTTYLLG | 0.0658 |
| HMISAQEQALRNLKLSNGMTWKALAKALGITERSILSYVAAPGTKGYREMPAEVWHKLENISGH | 0.143 |
| HMSDGYETLVNMAKPFLNNSKQITENDITDAVNTVSVMLKKRYDMTDEDIRKAVSELLHFYA | -0.791 |
| HMSDAGMNQIGDMFRAPDLMAKLAMNPATREYVSQPDFLAMMEEVKRNPSALNNHLRDPRMMNVLSVAM | -0.48 |
| HMGFDTVVEKVLGLITSRPMTSRDIQMTLGRSREHTSRLMNRLYKEGLVDRNTSSKPFSYIITEKGREKI | 0.424 |
| HMNIEANLEDILRRAMPSAAKLILENSLNINKIIGTGKEGRITKGDVLLYLKDKNLILENILN | 0.0861 |
| HMPLNAFDVAGYRLGYGGGYFDRTLAALSPRPLAVGVGFEINRLESIRPEAHDQRLDWIVTENGAFRPA | -0.944 |
| HMQKTIDWSQVDKEQYLSAMERSPVNDLEIKAILAKALTSDINNRELFMKGLDHSYYFEGYQLFKSE | -0.939 |
| HMQYYITKIANYDQVSPNLLVRTAEGQYMVKTNADILDTDVTKLTEEEIRKDWGYLFENGFSELV | -0.681 |
| HMTEVPSLSSLKIGDLIFYRNNKGAIAHSAIITSFYNGRPFISQHTFNALNITYVKDWASKMHFIKIW | -0.934 |
| HMLANLNKELQNDAALLKQKAQGNSNLLAKIQDVEQQMKQVNTSSASDEAKAKELQTLQRKLTAYKKALA | -0.0638 |
| HMRFDADELQKAYDLFDADENTPFKTIKQAYYALARRHHPDKNGDQEYFKVINNAFQLIQEHRRRRDN | -0.412 |
| HMNTSITVPSLKGLSQEAATLKMERLGLHVEVSDTGFVRSLAFGTVLQQSIAPGEKVKPGRLVYITINSD | 0.0638 |
| HMTKTKFLSKDMILSAMSRTKSNRAAARYLSVSFVHYKKYAREYKDETSGVSLWEKHKNQSGTGIPK | 0.0318 |
| HMPTNSDRLIGSDGVVSSKIDNLQGTGKVYISGLTWSARTIDGSEAEEGDIVTVEKIEGATLYVTKR | -0.293 |
| HMAIIQSNNIFKSQKEIVDEILVELDIPKDKWNFFHMLISSGYKDEFDTNRIYEIIQTNYNMMDR | -0.693 |
| HMKSEIRKKNSQIILDAAEHEFSVHGYRGTSVQMIADRSGLPKANLHYYYKSKSALYGAVLDRIL | 0.109 |
| HMKQVTVGGTINAGGARIYADSYGNGGGRQTFGSDPIYTVLQERNGYILTRWHKLSSGYTGWFKKSDVSA | -0.00968 |
| HMNNSDIDITVGKNSISINNPNRTNIIIYSSNGMLIDSSKNASYKRNLPSGIYIVKSGSSTHKVIV | ≥ 0.43 |
| HMNLNESVELGQELLSQALAQLGIRGELSPSTIDKLLAESSAKSMEELYADIGIGKRMPALVARHIFGLMD | -0.491 |
| HMSYPFSEDALKEKIREYLKHNRSINRKVLEAEFHIRKQTALNWLKKLEKSGFLIKEGSRNAPVYFLAE | 0.0835 |

| Sequence | soluble fraction (log2) |
| --- | --- |
| HMSLPTSDWKRALSLFDEALSLPPDARDAWLAHTIAREPAVSPLLQKLLGAHRRVETNDILATLPR | -0.274 |
| HMIVVMARETSTDDLEAIRERIESRGMVAQINLGVERTVIGVMGSIPPDFKDEMELMNGVVEVVMISK | -1.64 |
| HMTYTGTVTGVDEGGLRVRSSTSTENTSNVITKVYTGDTFDVLDTVYNGSAKWYKIGFTYNGTYTYGYVSA | -0.518 |
| HMKNLKLVSNTDGIRIDSWLADEFEDYSRSYLRKLIDQDLVYVNGNKIKANYKLKKGDEISISIPEPE | -0.259 |
| HMQILLASHAELAKGILSAVELIAGTQQNLKAYSAYTEAVDVHFKDQMLQDLNKMDPEDEVIL | 0.0244 |
| HMFDLSQRQEQIIEIVRKHGPITGEKIADLLYVTRAALRPDLAILTMSGYLEAKPRVGYTYK | -0.0725 |
| HMDMDRRALLLALINDRYHASVAEFARAINKAPAQVHQWLSGNRALGNAGARDIEIRLNLAQGYFDH | 0.282 |
| HMYLPLREVVFNALRTAIIHGEFKPGERLMEMHLAKSLGVSRTPVREAMRMLELEGLVVMIPKKGAEVAR | -0.408 |
| HMSEYITEGWLREKFGLGWGTEVHLPLDSRLTPAAHQLLEERKIVIKYIDAEGRVFNPDKSGEEAPVQ | -0.343 |
| HMVITISEADVSGTYTKSITQGDWKYIRTWTPFEDERLYDLAKDPMELRDLAPAAPSKLAELRELLSALVS | -1.56 |
| HMQDPTAVISRVLEERKHQPGALLPILHGIQDALGYVPREAVAQIAQALNLSRAEIHGVVSFYHHFR | -0.311 |
| HMPSNVKIPDVTGKTVAQARSAIEAAGLKVGKEKDEYSDSAKKDSVIRTNPQAGTQRREGSTVDLIVS | 0.22 |
| HMQVPWYQRLKEKRLEYGVSQNKLATHIGISRQYMSEIETGKVTPSDSLQATLFDILEQFNPDA | -0.74 |
| HMAQLVVTVDKLNKRTAIPVTLSDKSSNDSVVEKGFRFEGFPFVNTATNGKKWYKDREGFFYWAGGLMEEA | -0.0297 |
| HMNSKIIVESIIKSKNGIAKVADLVEGGVSRQSIKKMYADGYIKRISRGYYTLTSEPVSSDEQVISS | 0.39 |
| HMRENAARNRNVNLDIGETLRVDAWSPERRARVQYRGAAWDVELAPNAPATVGEFRIVEVRGNVLVVTP | -0.0451 |
| HMGQNYTIVKGDSLWKIAQKQYGDGSQWKKIYDANKDAIESAAKKYGKKSSDSGKWIYPGVSLII | 0.134 |
| HMNNLNDIIEIIRIYAKNYARNNPSWNHSELINRIRDKALGEAEDYNIRLSEEDLALITELSLRGL | -1.24 |
| HMGLTLREKMGHVLEMLKGREFLPFVSLFTVEEGRIGVVVTFMSILELVKEGILDLVQTESFGPIHVKAR | 0.0455 |
| HMLERKPVLVASRDLPALAVIGKDDLSVELLRTAPVGSYDRPEALLGKRVWVAVPAGSILSAATLEP | -0.0428 |
| HMNVNEIREMYPEGTQIVLTEMRGENQMPYGLKGTVKFVDDAGQIHMKWENGSSLALNINEDTFEKVE | -0.471 |
| HMQALDETTVSRIRQKAAARNLLLKVLAGQLGVARPTLSNVLARREAPSAALAARIRAFLDSP | 0.159 |
| HMATFTPYLVRITASVLNIRKGPGTTYAVTGQIKDRGVYTIVEQKGNWGRLKSGAGWISLSYTKK | 0.065 |
| HMPQNLQDQLFELILSRYPRRADAVEDLANILHLGKDPVYRRLRGDTFLSPLEISTLALHFRISLDALIV | -1.51 |
| HMNRETAISIYRILHILEEPYKEVFTLRTLGDLSYREIADIFGKQENWARVTYHRAKLKIREALVS | -0.71 |

| Sequence | soluble fraction (log2) |
| --- | --- |
| HMAEELELFHRLISVTGVGPKGALGFLSQLKPQEIILAILSDDVKTLSKAPGVGRKTAQRVILELKDKF | -0.828 |
| HMAEVPDLRNKTQQEAEAELTNHNLKLGNVTEEYSATVEAGRVISQSTSYGTKVLEGSSVDITISKGPEPT | 0.156 |
| HMELLSGTVEKVLTSGVLVKLPGGAIGFIPNSEMGTPRGTNHGKMFPAGTPLQVMVVEVNQDRGRITLSR | -0.389 |
| HMNTGLSEREHEIAQLVLQGRTYAEIGAELFISPRTAEHHIGQIRRRLAATSRSDLLAKLRVAMNTTEGAG | -0.567 |
| HMEEDPVIAAQRFLNIFRQLHIFTAAKRKEFDELLLKQPASVKGMFASLPGGSVLQEYVNNLEQNAG | -0.0952 |
| HMKHVDLDNNERYIYGIIGSTKIHVDEVVEKSGMETKHVMAILTNLELKEAIKGIPGGFYLR | -1.19 |
| HMTNQEFNAAFKPFLDYFPTTEMTKEKINIYYLALSDLSKEQLGSAFISMVKNRVYKNFPQVAEIRQYATN | -0.456 |
| HMSEKRLHLVVDESDVNTRIDKYIADELDGYSRSFIQKLIKDNNVLVNGRAVKPNYNIGISDNIDIVLPKL | 0.188 |
| HMGRGAAKGPLKELGLDPVTGRPLVVKDGKFGMYVTDGETNAGLRRGDLVEQLTLDRGMELLAERRARADQ | -0.258 |
| HMKEFEINSQWKPSLEVYDILSVKGGISRNFIEDSIPEFVLYWRGRGDKSNTWDSKFVQHVKRQWNFYSGL | -2.41 |
| HMPELSPEERAIIETLQKNNDLQVNIIAIKTGMDMGSLSAVLFDLEMKGLVKLLAGGMYHLI | -0.112 |
| HMGFALLIAIERTGNTTYFVKLTLIKKGSDSDVLKDSFSVSQGDLVGTATYDSVIANRIREKTAAMWQKAT | -0.73 |
| HMGSDLVAWAQTRIGRHPEEAADVIAALIDRHGEARVRAASRSLLARKFAHASDLRTAIDAAIG | 0.0531 |
| HMFPNLTNEEQQVMKVLAKTNDLQINMLSVQSNLPIARLTALLFSMEMKGVVKTLAGGVYHLL | 0.375 |
| HMIDSVFASYRQVALDDELWDKVRNGAVLPKVELFEVMDGPVLFTYQSKIVAMYEPHPTKAGYIKPRKMFL | -1.52 |
| HMELSESLENYLVVIYEAHLRNEIARIKDMTASLSVKHTSAIDAIKKLEDLGIVNYEKRGFVKLTQSGIEK | -0.177 |
| HMTKQRSIILDLLKANQDRHLTAEEMLELLNQNHTPVSKATLYRYLDMLVSQNAVRKFIIDDQPSAGYQYL | -0.0717 |
| HMTTTFGWENLVGEKGIAATDLHPSGWVTVKDQRVFVVSEGTFIEEGKEVEIMNVDGNRIVVREFKN | -0.46 |
| HMHPVTGRIGTVTAANGLNLRADSSEYANVVATLGYGVDVTVTGERINGFYPVRVGTLSGYVSADYVSFNS | -0.299 |
| HMLAAAVVVYATDKVNVRAEASETADVIGQLEAGSQTTRLEDKDGWSRIDYSNGTQGYMKSEFLSTEAPT | -0.622 |
| HMQAGNAVEQYPTIGRLEEVTLGRSQPGAPIGERLSTLETVVFKRNFNDDSLFDRTERLKKTILGG | -0.0794 |
| HMESGLPLPRFVSLGADEVNLRTGPGLRYPVAWVFVRKALPVEIVAEFEQWRRVRDFEGAEGWVHKAML | -0.527 |
| HMEVTLTLKSFGTAKVAVIKAIQSITGLGLMDAKKLVDAAPSVIKEKISPSEAEQYKKTLVDAGAEVEI | 0.0249 |
| HMDRLTISTLGNGLFRVNGAEAEATVYNLSGNVVKVVPADEVIDLSSLAKGVYIIHVDGEAFKVI | -0.0808 |
| HMLGERIKQIRKQKKMTQTDVATGIITKSMLSMIENGKATPSLPALQAIARRLQVTVEELML | 0.0227 |
